The target in experiment [1] is T1, CLL-1 on cells (HEK293 cells stably transfected with CLL-1; HL-60 and other AML cells) (human, UniProt Q5QGZ9 1-265).
T1 sequence: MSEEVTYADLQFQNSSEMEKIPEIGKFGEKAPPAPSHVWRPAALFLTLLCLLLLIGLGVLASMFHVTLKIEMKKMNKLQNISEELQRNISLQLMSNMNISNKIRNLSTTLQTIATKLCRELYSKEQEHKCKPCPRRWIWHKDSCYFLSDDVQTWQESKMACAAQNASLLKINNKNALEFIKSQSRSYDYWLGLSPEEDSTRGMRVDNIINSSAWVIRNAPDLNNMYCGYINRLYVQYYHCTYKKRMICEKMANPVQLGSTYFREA
As to the kind of experiment: cell-based or functional assay.

Experiment [2] addresses T2, CLL-1-ECD-V5His recombinant protein (human, UniProt Q5QGZ9 67-265).
T2 construct: also called recombinant CLL-1 protein; CLL-1 V5-6His protein; not shown: C-terminal V5-His tag
T2 sequence: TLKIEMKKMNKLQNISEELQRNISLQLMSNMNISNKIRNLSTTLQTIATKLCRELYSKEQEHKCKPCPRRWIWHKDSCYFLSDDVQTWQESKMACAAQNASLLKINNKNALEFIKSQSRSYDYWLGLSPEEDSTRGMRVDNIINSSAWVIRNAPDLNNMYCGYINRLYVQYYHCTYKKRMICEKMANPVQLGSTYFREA
The experiment in a line: SPR (BIAcore), mAb captured via anti-mouse mAb, antigen in solution, 25° C. The protocol: (§1) Kinetic rate constants (kₐ and kd) were determined using surface plasmon resonance and affinities (KD) were then calculated from the rate constants (kd/kₐ). Surface plasmon resonance was carried out on a BlAcore system (Biacore International AB, Uppsala, Sweden). Chimeric monoclonal antibodies (21.16 or 1075.7) were diluted to 2 μg/ml and then captured on the biosensor surface using an anti-mouse mAb. Antigen was diluted to a starting concentration of 46 nM and tested for binding to the mAb samples using a 3-fold dilution series. Each of 5 concentrations was tested twice except the highest concentration which was tested 5 times in total, two times with a short dissociation of 300 seconds followed by three times with a dissociation of 60 minutes. The data sets from the long dissociation experiments were globally fit with the shorter association experiments to determine binding constants for the interactions. The analysis was carried out in HBS, pH 7.4 buffer at 25° C. (Canziani et al, Anal. Biochem. 352:301-307 (2004)).
A general note: Surface plasmon resonance follows binding to a sensor surface in real time, without labels.

In experiment [3] the target is T2, CLL-1-ECD-V5His recombinant protein. As to the kind of experiment: SPR (BIAcore), mAb captured via anti-mouse mAb, antigen in solution, 25° C.; KD = kd/ka. The protocol: as §1

B1: chimeric anti-CLL-1 monoclonal antibody 21.16 (antibody, human IgG1, V domains shown)
VH: QVQLQQPGAELVKPGTSVKLSCKASGYTFTRYWMHWVKQRPGQGLEWIGMIHPSSGSTSYNEKVKNKATLTVDRSSTTAYMQLSSLTSEDSAVYYCARDGDYYYGTGDYWGQGTTLTVSS
VL: QIVLSQSPAILSASPGEKVTMTCRASSSINYMHWYQQKPGSSPKPWIFATSNLASGVPSRFSGSGSGTSYSLTISRVEAEDAATYYCQQWRSDRALTFGAGTKLELIR
notes: No cleavage site is stated; also called mAb 21.16; VL1VH1
Turning to B1, in experiment [1], the “EC50 of complement-dependent cytotoxicity (CDC) on OCI-AML5 cells” value is roughly 0.0071 µg/mL; the “EC50 of ex vivo cytotoxicity on patient AML sample 'M1'” value turned out to be 0.284 µg/mL; the “EC50 of ex vivo cytotoxicity on patient AML sample 'M5a'” value amounted to 0.146 µg/mL; the “complement-dependent cytotoxicity (CDC), EC50, HEK293 cells expressing CLL-1” value was roughly 0.088 µg/mL. Besides, the kon (in general, a measure of how fast the partners come together) in experiment [2] was 554000 M⁻¹ s⁻¹.

B2: chimeric anti-CLL-1 monoclonal antibody 1075.7 (antibody, human IgG1, V domains shown)
VH: DIQLQESGPGLVKPSQSLSLTCSVTGYSITSAYYWNWIRQFPGNKLEWMGYISYDGRNNYNPSLKNRISITRDTSKNQFFLKLNSVTTEDTATYYCAKEGDYDVGNYYAMDYWGQGTSVTVSS
VL: ENVLTQSPAIMSASPGEKVTMTCRASSNVISSYVHWYQQRSGASPKLWIYSTSNLASGVPARFSGSGSGTSYSLTISSVEAEDAATYYCQQYSGYPLTFGAGTKLELKR
notes: No cleavage site is stated; also called mAb 1075.7; clone #1075.7
In the case of B2, in experiment [2], the koff (usually a measure of how fast the partners let go of each other) was determined as 0.00015 s⁻¹ and the on-rate (kon) is 417000 M⁻¹ s⁻¹. For the same molecule, the equilibrium dissociation constant (Kd) (commonly a measure of binding affinity in units of concentration) in experiment [3] came to 0.36 nM.

The record behind these values is US20100285037A1 (ARCA BIOPHARMA, published 2010).
